Like-named read-outs stand apart in the source and are kept apart here.
What was measured:
[1] = target: T1, Chlorella sorokiniana chloroplastic NADP-specific glutamate dehydrogenase (NADP-GDH) β-homohexamer, native (mature β-subunit SEQ ID NO. 26) (Chlorella sorokiniana, UniProt P28998, E496R/E82D/G270P/L83V); assay: Km values, aminating reaction, β-homohexameric isoenzyme; format: biochemical
T1 construct: endogenous in cells; host or cells: Chlorella sorokiniana (UTEX-1230; 3B2NA), cells cultured in 1 mM or 29 mM ammonium medium; enzyme purified from the cells
T1 sequence (P28998 49-523 E82D/L83V/G270P/E496R): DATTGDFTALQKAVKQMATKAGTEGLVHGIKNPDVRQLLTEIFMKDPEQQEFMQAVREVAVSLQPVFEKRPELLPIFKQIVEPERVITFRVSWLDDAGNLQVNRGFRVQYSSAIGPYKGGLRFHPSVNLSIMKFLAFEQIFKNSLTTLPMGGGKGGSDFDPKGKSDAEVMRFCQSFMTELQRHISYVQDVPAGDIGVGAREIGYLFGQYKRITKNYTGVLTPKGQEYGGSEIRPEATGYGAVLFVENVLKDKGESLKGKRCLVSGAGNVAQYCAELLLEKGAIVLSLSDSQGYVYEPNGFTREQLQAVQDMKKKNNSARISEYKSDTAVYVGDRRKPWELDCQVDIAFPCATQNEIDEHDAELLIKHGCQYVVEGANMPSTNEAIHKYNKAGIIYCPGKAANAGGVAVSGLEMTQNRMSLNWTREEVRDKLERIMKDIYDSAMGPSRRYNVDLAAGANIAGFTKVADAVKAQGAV
Description: (§1) The chloroplastic glutamate dehydrogenase α- and β-isoenzymes used in the following experiments are naturally produced by an organism characterized as Chlorella sorokiniana.
(§2) C. sorokiniana culture conditions. For kinetic characterization in both the aminating and deaminating directions, the α- and β-holoenzymes were purified from cells that were accumulating only one form of homohexameric GDH isoenzyme.
(§3) The C. sorokiniana cells (UTEX-1230, University of Texas algal culture collection; 3B2NA, Robert R. Schmidt, University of Florida, Microbiology Cell Science Department) were cultured autotrophically as previously described by Prunkard et al., supra in a modified basal salts medium. […]
(§4) The NADP-GDH β-isoenzyme was purified from a mixture of cells cultured for 240 minutes in 1 mM ammonium medium (14 g), 90 minutes in 1 mM ammonium medium (6 g), and for 20, 40, 60, and 80 minutes in 29 mM ammonium medium (1 g/time point) according to Bascomb and Schmidt, supra. […] The NADP-GDH in the pooled fractions was concentrated via Diaflow ultrafiltration to 2 mg/ml protein, as determined by the method of Bradford (Bradford, M. M. [1976] Anal. Biochem. 72:248-254), and stored at 4° C. until further use. After resolution of the proteins by 8% (w/v) Tris-Tricine SDS-PAGE, the purity of the preparation was determined by silver staining. […]

[2] = target: T1, Chlorella sorokiniana chloroplastic NADP-specific glutamate dehydrogenase (NADP-GDH) β-homohexamer, native (mature β-subunit SEQ ID NO. 26); details: β-homohexamer purified from Chlorella cells (catabolic form), non-allosteric; read-out: ammonium Km; cited from earlier work
[3] = target: T2, Chlorella sorokiniana chloroplastic NADP-specific glutamate dehydrogenase (NADP-GDH) α-homohexamer, native (mature α-subunit SEQ ID NO. 24) (Chlorella sorokiniana, UniProt P28998, E496R/E82D/G270P/L83V); assay: Km values, aminating reaction, α-homohexameric isoenzyme; format: biochemical; details: NH4^+ range, depending on the NADPH concentration (b9)
T2 construct: endogenous in cells; host or cells: Chlorella sorokiniana (UTEX-1230; 3B2NA), cultured in 29 mM ammonium medium; enzyme purified from the cells
T2 sequence (P28998 with tags, fused parts or gaps E82D/L83V/G270P/E496R): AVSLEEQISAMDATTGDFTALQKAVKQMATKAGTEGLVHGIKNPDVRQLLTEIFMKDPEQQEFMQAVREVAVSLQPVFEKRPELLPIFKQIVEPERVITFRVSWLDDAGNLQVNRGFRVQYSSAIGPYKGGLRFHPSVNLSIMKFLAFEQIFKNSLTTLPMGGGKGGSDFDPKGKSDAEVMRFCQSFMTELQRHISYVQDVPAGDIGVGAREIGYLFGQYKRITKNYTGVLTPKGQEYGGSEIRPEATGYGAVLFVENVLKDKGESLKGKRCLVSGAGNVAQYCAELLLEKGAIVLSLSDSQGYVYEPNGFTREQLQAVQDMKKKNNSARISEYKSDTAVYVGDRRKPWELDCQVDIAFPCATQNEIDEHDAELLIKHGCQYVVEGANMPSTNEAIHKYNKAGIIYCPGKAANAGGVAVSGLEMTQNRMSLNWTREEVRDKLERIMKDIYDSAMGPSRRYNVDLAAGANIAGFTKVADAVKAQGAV
Description: as §1, §2, §3
(§5) For preparative nondenaturing PAGE, a 3 cm tall 7% acrylamide (w/v, 28 acrylamide: 0.735 bis-acrylamide, pH 8.8) resolving gel, and a 2 cm tall 2% acrylamide (w/v, 1.6 acrylamide: 0.4 bis-acrylamide, pH 6.6) stacking gel were cast in the 28 mm ID gel tube of the Model 491 Prep Cell. […] The enzyme in the pooled fractions in 10 mM KPO4 (pH 6.2), 0.1 mM NADP^+ was concentrated by Diaflow ultrafiltration to 1 mg/mL as determined by the method of Bradford, using BSA as a standard. […] The purity of the preparation was determined by silver-staining to visualize proteins resolved by 10% (w/v) Tris-Tricine SDS-PAGE (Schagger, H., G. von Jagow [1987] Anal. Biochem. 166:368-379). […]

[4] = substrate: NC(=O)C1=CN([C@@H]2O[C@H](COP(=O)(O)OP(=O)(O)OC[C@H]3O[C@@H](n4cnc5c(N)ncnc54)[C@H](OP(=O)(O)O)[C@@H]3O)[C@@H](O)[C@H]2O)C=CC1; assay: as above; format: biochemical, Chlorella sorokiniana; details: other: α-homohexamer, 38.5 °C
Description: as §1, §2, §3, §5

[5] = substrate: NC(=O)c1ccc[n+]([C@@H]2O[C@H](COP(=O)([O-])OP(=O)(O)OC[C@H]3O[C@@H](n4cnc5c(N)ncnc54)[C@H](OP(=O)(O)O)[C@@H]3O)[C@@H](O)[C@H]2O)c1; assay: Km values, deaminating reaction, α-homohexameric isoenzyme; format: biochemical, Chlorella sorokiniana; details: other: α-homohexamer, 38.5 °C
Description: as §1, §2, §3, §5

[6] = substrate: N[C@@H](CCC(=O)O)C(=O)O; assay: as above; format: biochemical, Chlorella sorokiniana; details: other: α-homohexamer, 38.5 °C
Description: as §1, §2, §3, §5

[7] = substrate: NC(=O)C1=CN([C@@H]2O[C@H](COP(=O)(O)OP(=O)(O)OC[C@H]3O[C@@H](n4cnc5c(N)ncnc54)[C@H](OP(=O)(O)O)[C@@H]3O)[C@@H](O)[C@H]2O)C=CC1; assay: Km values, aminating reaction, β-homohexameric isoenzyme; format: biochemical, Chlorella sorokiniana; details: other: β-homohexamer, 38.5 °C
Description: as §1, §2, §3, §4

[8] = substrate: NC(=O)c1ccc[n+]([C@@H]2O[C@H](COP(=O)([O-])OP(=O)(O)OC[C@H]3O[C@@H](n4cnc5c(N)ncnc54)[C@H](OP(=O)(O)O)[C@@H]3O)[C@@H](O)[C@H]2O)c1; assay: Km values, deaminating reaction, β-homohexameric isoenzyme; format: biochemical, Chlorella sorokiniana; details: other: β-homohexamer, 38.5 °C
Description: as §1, §2, §3, §4

[9] = substrate: N[C@@H](CCC(=O)O)C(=O)O; assay: as above; format: biochemical, Chlorella sorokiniana; details: other: β-homohexamer, 38.5 °C
Description: as §1, §2, §3, §4

[10] = substrate: O=C(O)CCC(=O)C(=O)O; assay: purified protein, by the assay type; details: other: β-homohexamer, aminating reaction; 38.5 °C

Question: For `N` [NH4^+, ammonium], which Km [1] is on record?
Answer: 77 mM

Question: And the Km [2]?
Answer: ~75 mM

Question: What about the Km [3] of the same molecule?
Answer: 0.02 to 3.5 mM

B1: Chlorella sorokiniana chloroplastic NADP-specific glutamate dehydrogenase (NADP-GDH) α-homohexamer, native (mature α-subunit SEQ ID NO. 24) (Chlorella … (protein)
chain: T2 sequence (P28998 with tags, fused parts or gaps E82D/L83V/G270P/E496R)
notes: endogenous in cells; host or cells: Chlorella sorokiniana (UTEX-1230; 3B2NA), cultured in 29 mM ammonium medium; enzyme purified from the cells
Question: With B1 as the molecule, how does the Km [4] read?
Answer: 0.14 mM

Question: What about the Km [5] of the same molecule?
Answer: 0.04 mM

Question: And the Km [6]?
Answer: 38.2 mM

B2: Chlorella sorokiniana chloroplastic NADP-specific glutamate dehydrogenase (NADP-GDH) β-homohexamer, native (mature β-subunit SEQ ID NO. 26) (Chlorella … (protein)
chain: T1 sequence (P28998 49-523 E82D/L83V/G270P/E496R)
notes: endogenous in cells; host or cells: Chlorella sorokiniana (UTEX-1230; 3B2NA), cells cultured in 1 mM or 29 mM ammonium medium; enzyme purified from the cells
Question: Which Km [7] does the source give for B2 here?
Answer: 0.14 mM

Question: What about the Km [8] of the same molecule?
Answer: 0.04 mM

Question: And the Km [9]?
Answer: 32.3 mM

Question: And the Km [10]?
Answer: 12 mM
